This note sets out measurements from article doi:10.1101/2020.11.23.394106 (bioRxiv, 2020).

Where no end group is shown, it is not given here.

The target of assay [1] is T1, merlin FERM domain (22-312), GST tag cleaved (human, UniProt P35240 22-312).
T1 sequence: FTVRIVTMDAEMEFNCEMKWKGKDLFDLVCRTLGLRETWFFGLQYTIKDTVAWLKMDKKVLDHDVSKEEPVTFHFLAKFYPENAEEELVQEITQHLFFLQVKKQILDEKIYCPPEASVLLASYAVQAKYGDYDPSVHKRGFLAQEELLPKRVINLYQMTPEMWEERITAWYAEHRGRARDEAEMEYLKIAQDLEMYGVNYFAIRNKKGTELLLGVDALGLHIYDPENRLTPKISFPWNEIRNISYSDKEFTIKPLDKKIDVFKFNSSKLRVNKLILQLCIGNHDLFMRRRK
Description: fluorescence polarisation. In general terms: In fluorescence polarisation assays a small probe gives low polarisation when free and higher when bound to something large.

Assay [2] addresses moesin FERM domain, GST tag cleaved (UniProt P26038 2-295). Briefly: fluorescence polarisation.

moesin FERM domain, GST tag cleaved, sequence (P26038 2-295): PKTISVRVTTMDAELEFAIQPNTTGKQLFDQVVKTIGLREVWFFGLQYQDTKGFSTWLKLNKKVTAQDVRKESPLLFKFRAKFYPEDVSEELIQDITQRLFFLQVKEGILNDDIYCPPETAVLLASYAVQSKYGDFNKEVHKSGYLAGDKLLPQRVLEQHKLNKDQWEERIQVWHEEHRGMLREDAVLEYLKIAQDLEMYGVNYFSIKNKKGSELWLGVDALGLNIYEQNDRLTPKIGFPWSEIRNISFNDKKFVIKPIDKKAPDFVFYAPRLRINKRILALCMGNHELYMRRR

As to FYDLWASDNPLDRPLV (also: FITC label, site not given here) [FITC-labeled NOP53_(192-207)], in assay [1], the binding result is listed as “binds”.

Take TNGYYSVNTFKEHHSTPTI [KIRREL3 peptide with N-terminal extension of three amino acids (634-652), unlabeled]: the dissociation constant Kd in assay [2] is 120 nM.

In turn, YYSVNTFKEHHSTPTI [KIRREL3_(637-652), unlabeled peptide] showed a dissociation constant (Kd) in assay [2] of 90 nM.

On to LEFADFYDFRSSYPDH (also: FITC label, site not given here) [FITC-labeled ZNF622_(341-356)], for which, in assay [1], the binding result is listed as “binds”.

As to AEPLPSLEYWPQKSDR (also: FITC label (position not given here)) [FITC-labeled FAM83G_(111-126)], in assay [1], the affinity, expressed as Kd, was 93000 nM.

In general, Kd refers to the equilibrium constant for the complex coming apart.
